Test results published in EP4624486A1 (Guangdong Raynovent Biotech Co., Ltd., dated 2025).
Bridge positions count the residues as written; N and C are the ends. Square brackets hold non-standard residues; d marks the D form. Ends that are not written are not given here. stapled body chem0195 = not defined here; stapled body chem0208 = not defined here; stapled body chem0209 = not defined here; stapled body chem0212 = not defined here; stapled body chem0214 = not defined here; stapled body chem0215 = not defined here; αMeL = CC(C)C[C@](C)(N)C(=O)O; Orn = NCCC[C@H](N)C(=O)O; Aib = CC(C)(N)C(=O)O

B1: Example 18 (peptide)
peptide: Y[Aib]QGTFTSDYSI[αMeL]LDKKAQ[Aib]AFIKYLLEGGPSSGAPPPS-NH2
modifications: linker 17-24 via Ida, Lys, Lys, γGlu, C20 diacid
B2: Example 26 (peptide)
peptide: Y[Aib]QGTFTSDYSI[αMeL]LDKKAQ[Aib]KFIEFLLKGGPSSGAPPPS-NH2
modifications: linker 21-28 via Ida, Lys, Lys, γGlu, C20 diacid; also: further groups not given here
B3: Example 23 (peptide)
peptide: Y[Aib]QGTFTSDYSI[αMeL]LDKKAQ[Aib]KFIEFLIEGGPSSGAPPPS-NH2
modifications: linker 17-21 via Ida, Lys, Lys, γGlu, C20 diacid
B4: Example 5 (peptide)
peptide: H[Aib]HGTFTSDYSIYLEKKYA[Aib]KFVQWLLEGGPSSGAPPPS-NH2
modifications: bridge 17-21; not fully specified (bridges); also: stapled body (lipidated) structure only in drawing chem0198
B5: Example 14 (peptide)
peptide: Y[Aib]QGTFTSDYSI[αMeL]LDKKAQ[Aib]KFIEYLLKGGPSSGAPPPS-NH2
modifications: linker 21-28 via stapled body chem0212; reading uncertain; also: further groups not given here
B6: Example 1 (peptide)
peptide: Y[Aib]QGTFTSDYSI[αMeL]LDKKAQ[Aib]KFIEYLLEGGPSSGAPPPS-NH2
modifications: linker 17-21 via (2-2-oxoethyl)‑glycine, AEEA, AEEA, γGlu, C20 diacid
B7: Example 7 (peptide)
peptide: Y[Aib]QGTFTSDYSI[αMeL]LDKKAQ[Aib]KFIEYLLEGGPSSGAPPPS-NH2
modifications: bridge 17-21; also: further groups not given here
B8: Example 11 (peptide)
peptide: Y[Aib]QGTFTSDYSI[αMeL]LDKKAQ[Aib]AFIKYLLEGGPSSGAPPPS-NH2
modifications: linker 17-24 via stapled body chem0209; reading uncertain; also: further groups not given here
B9: Example 22 (peptide)
peptide: Y[Aib]QGTFTSDYSI[αMeL]LDKKAQ[Aib]KFIEFLLEGGPSSGAPPPS-NH2
modifications: linker 17-21 via Ida, Lys, Lys, γGlu, C20 diacid
B10: Example 2 (peptide)
peptide: Y[Aib]QGTFTSDYSI[αMeL]LDKKAQ[Aib]AFIKWLLKGGPSSGAPPPS-NH2
modifications: linker 24-28 via stapled body chem0195; reading uncertain; also: further groups not given here
B11: Example 17 (peptide)
peptide: Y[Aib]QGTFTSDYSI[αMeL]LDKKAQ[Aib][Orn]FIEYLLEGGPSSGAPPPS-NH2
modifications: linker 17-21 via stapled body chem0215; reading uncertain; also: further groups not given here
B12: Example 21 (peptide)
peptide: Y[Aib]QGTFTSDYSI[αMeL]KDKKAQ[Aib]AFIEYLLEGGPSSGAPPPS-NH2
modifications: linker 14-17 via (2-2-oxoethyl)‑glycine, AEEA, γGlu, C20 diacid
B13: Example 9 (peptide)
peptide: Y[Aib]QGTFTSDYSI[αMeL]LDKKAQ[Aib]KFIEFLLEGGPSSGAPPPS-NH2
modifications: bridge 17-21; also: stapled body between K17 and K21 is given only as a drawing, not in text
B14: Example 8 (peptide)
peptide: Y[Aib]QGTFTSDYSI[αMeL]LDKKAQ[Aib]KFIEYLLEGGPSSGAPPPS-NH2
modifications: bridge 17-21
B15: Example 16 (peptide)
peptide: Y[Aib]QGTFTSDYSI[αMeL]LDKKAQ[Aib][dK]FIEYLLEGGPSSGAPPPS-NH2
modifications: linker 17-21 via stapled body chem0214; reading uncertain; also: further groups not given here
B16: Example 4 (peptide)
peptide: H[Aib]HGTFTSDYSIYLEKKYA[Aib]EFVKWLLKGGPSSGAPPPS-NH2
modifications: bridge 24-28; not fully specified (bridges); also: stapled body (lipidated) structure only in drawing chem0197
B17: Example 28 (peptide)
peptide: Y[Aib]QGTFTSDYSK[αMeL]LDKKAQ[Aib]AFIEFLLEGGPSSGAPPPS-NH2
modifications: linker 12-16 via Ida, Lys, Lys, γGlu, C20 diacid; also: further groups not given here
B18: Example 38 (peptide)
peptide: Y[Aib]QGTFTSDYSI[αMeL]KDKKAQ[Aib]AFIEYLLKGGPSSGAPPPS-NH2
modifications: linker 14-17 via (2-2-oxoethyl)‑glycine, AEEA, γGlu, C20 diacid
B19: Example 12 (peptide)
peptide: Y[Aib]QGTFTSDYSI[αMeL]LDKKAQ[Aib]KFIEYLLEGGPSSGAPPPS-NH2
modifications: linker 17-21 via Glu, AEEA, AEEA, γGlu, C20 diacid
B20: Example 6 (peptide)
peptide: Y[Aib]QGTFTSDYSI[αMeL]LDKKAQ[Aib]KFIEYLLEGGPSSGAPPPS-NH2
modifications: bridge 17-21; also: stapled body between K17 and K21 is given only as a drawing, not in text
B21: Example 3 (peptide)
peptide: Y[Aib]QGTFTSDYSI[αMeL]LDKKAQ[Aib]AFIEKLLEGGPSSGAPPPS-NH2
modifications: linker 25-28 via Lys, AEEA, γGlu, C20 diacid
B22: Example 10 (peptide)
peptide: Y[Aib]QGTFTSDYSI[αMeL]LDKKAQ[Aib]EFIEYLLEGGPSSGAPPPS-NH2
modifications: linker 17-21 via stapled body chem0208; reading uncertain; also: further groups not given here
B23: Example 43 (peptide)
peptide: Y[Aib]QGTFTSDYSI[αMeL]KDKKAQ[Aib]AFIEYLLEGGPSSGAPPPS-NH2
modifications: linker 14-17 via (2-2-oxoethyl)‑glycine, AEEA, γGlu, 19‑phosphonononadecanoic acid

Molecular target: GLP-1 receptor (GLP-1R) (UniProt P43220 24-463, limits assumed)
Assay: cell-based or functional assay

Row | Binder | GLP-1 EC50 (nM); cAMP, agonistic activity
1 | B1 | 0.008 nM
2 | B2 | 0.014 nM
3 | B3 | 0.007 nM
4 | B4 | 0.029 nM
5 | B5 | 0.001 nM
6 | B6 | 0.009 nM
7 | B7 | 0.005 nM
8 | B8 | 0.006 nM
9 | B9 | 0.009 nM
10 | B10 | 0.009 nM
11 | B11 | 0.001 nM
12 | B12 | 0.02 nM
13 | B13 | 0.005 nM
14 | B14 | 0.004 nM
15 | B15 | 0.002 nM
16 | B16 | 0.023 nM
17 | B17 | 0.011 nM
18 | B18 | 0.002 nM
19 | B19 | 0.002 nM
20 | B20 | 0.005 nM
21 | B21 | 0.025 nM
22 | B22 | 0.009 nM

Molecular target: T1, GIP receptor (GIPR) (UniProt P48546 22-466, limits assumed)
T1 sequence (looked up): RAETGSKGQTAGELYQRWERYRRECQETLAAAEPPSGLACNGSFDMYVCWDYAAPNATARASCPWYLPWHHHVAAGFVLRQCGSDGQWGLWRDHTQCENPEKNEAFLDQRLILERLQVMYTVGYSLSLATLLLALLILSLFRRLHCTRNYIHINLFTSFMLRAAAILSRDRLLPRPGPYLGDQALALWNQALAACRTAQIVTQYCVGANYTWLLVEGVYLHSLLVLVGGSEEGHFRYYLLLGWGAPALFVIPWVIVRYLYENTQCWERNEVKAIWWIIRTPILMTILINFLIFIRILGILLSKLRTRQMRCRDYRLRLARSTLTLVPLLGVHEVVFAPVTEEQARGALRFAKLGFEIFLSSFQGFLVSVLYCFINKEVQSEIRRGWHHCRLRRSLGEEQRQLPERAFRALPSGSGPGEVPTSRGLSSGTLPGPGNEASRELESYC
Assay: cell-based or functional assay

Row | Binder | GIP-1 EC50 (nM); cAMP, agonistic activity
23 | B1 | 0.0004 nM
24 | B2 | 0.0005 nM
25 | B3 | 0.0004 nM
26 | B4 | 0.007 nM
27 | B5 | 0.0001 nM
28 | B6 | 0.001 nM
29 | B7 | 0.0003 nM
30 | B8 | 0.0003 nM
31 | B9 | 0.0004 nM
32 | B10 | 0.001 nM
33 | B11 | 0.0001 nM
34 | B12 | 0.0008 nM
35 | B13 | 0.0004 nM
36 | B14 | 0.0004 nM
37 | B15 | 0.0001 nM
38 | B16 | 0.016 nM
39 | B17 | 0.0008 nM
40 | B18 | 0.0002 nM
41 | B19 | 0.0001 nM
42 | B20 | 0.0005 nM
43 | B21 | 0.003 nM
44 | B22 | 0.0003 nM

Molecular target: GCG receptor (GCGR) (UniProt P47871 26-477, limits assumed)
Assay: cell-based or functional assay

Sequence of GCG receptor (GCGR) (P47871 26-477 limits assumed): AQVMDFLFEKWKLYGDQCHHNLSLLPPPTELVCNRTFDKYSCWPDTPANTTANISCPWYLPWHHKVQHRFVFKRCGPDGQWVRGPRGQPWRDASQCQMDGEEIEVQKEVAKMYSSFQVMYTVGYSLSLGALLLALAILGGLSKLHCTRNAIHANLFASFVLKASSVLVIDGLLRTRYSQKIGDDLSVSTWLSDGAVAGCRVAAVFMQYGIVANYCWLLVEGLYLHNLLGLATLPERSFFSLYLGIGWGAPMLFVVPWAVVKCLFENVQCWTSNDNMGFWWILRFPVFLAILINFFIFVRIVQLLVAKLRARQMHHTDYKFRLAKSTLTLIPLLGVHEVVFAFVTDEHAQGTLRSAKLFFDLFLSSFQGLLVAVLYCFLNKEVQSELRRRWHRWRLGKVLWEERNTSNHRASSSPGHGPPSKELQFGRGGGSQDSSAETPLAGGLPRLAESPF

Row | Binder | GCG EC50 (nM); cAMP, agonistic activity
45 | B1 | 0.052 nM
46 | B2 | 0.11 nM
47 | B3 | 0.096 nM
48 | B4 | 0.012 nM
49 | B5 | 0.028 nM
50 | B6 | 0.024 nM
51 | B7 | 0.061 nM
52 | B8 | 0.129 nM
53 | B9 | 0.034 nM
54 | B10 | 0.279 nM
55 | B11 | 0.016 nM
56 | B12 | 0.039 nM
57 | B13 | 0.022 nM
58 | B14 | 0.012 nM
59 | B15 | 0.042 nM
60 | B16 | 0.143 nM
61 | B17 | 0.11 nM
62 | B23 | 0.042 nM
63 | B18 | 0.018 nM
64 | B19 | 0.007 nM
65 | B20 | 0.017 nM
66 | B21 | 1.68 nM
67 | B22 | 0.057 nM
